Measurements: the supplement of paper PMC10567573
± gives the standard deviation.

Assay: protein stability index of a GFP-peptide fusion (GPS, HEK-293T) (PSI 1-6); higher = more stable
[1] = treatment: DMSO, c terminus: a fixed tail appended
[2] = treatment: MLN4924 1 uM, 8 h, c terminus: a fixed tail appended
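Further: 24-mer peptide tiles fused after GFP, lentivirally expressed, FACS-sorted into six equal bins by GFP/DsRed ratio, decoded by Illumina sequencing, PSI is the read-weighted mean bin number.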

Sequence VEKETQEKMTILQTYFRQNRDEVL [ATP6V1G1] has a protein stability index [1] of 3.61 ± 0.34 and a protein stability index [2] of 3.78 ± 0.26.
VEVDAAPAVDLNQVLNETRNQYEA [KRT33B] gave a protein stability index [1] of 4.91 ± 0.29 and a protein stability index [2] of 5.17 ± 0.21.
For VFEYCDHTLLNELERNPNGVADGV [CDKL4], the protein stability index [1] was 3.89 ± 0.57 and the protein stability index [2] was 4.03 ± 0.55.
For VFFLFPHSVLVDDDGIKVVKVTFN [TMEM106C], the protein stability index [1] was 2.76 ± 0.45 and the protein stability index [2] was 2.65 ± 0.74.
Sequence VFLNLHTLKFYCLPDNYEIIDSSL [USP39] has a protein stability index [1] of 3.08 ± 0.48 and a protein stability index [2] of 2.58 ± 0.33.
VGIYATNSAEACQYVITHAKVNIL [ACSBG2] showed a protein stability index [1] of 2.73 ± 0.69 and a protein stability index [2] of 2.38 ± 0.83.
Work on VGRLKRERSMSENAVRQNGQLVRN [MFF] yielded a protein stability index [1] of 5 ± 0.16 and a protein stability index [2] of 4.94 ± 0.078.
In the case of VHVFGDELSLVTLFRCIQNMPETL [TNFSF13B], the protein stability index [1] is reported as 2.5 ± 0.31 and the protein stability index [2] is reported as 2.58 ± 0.58.
Work on VILEVSLEGSHDTANCEACTLGIC [RTP4] yielded a protein stability index [1] of 3.86 ± 0.13 and a protein stability index [2] of 3.78 ± 0.28.
Work on VILSEIKEAVAALPPDVTTQSVMG [TCF25] yielded a protein stability index [1] of 2.77 ± 0.43 and a protein stability index [2] of 2.65 ± 0.2.
VKDEAHQAQKDPKKDRPLARRKSE [PPP2R5C] showed a protein stability index [1] of 5.55 ± 0.25 and a protein stability index [2] of 5.43 ± 0.22.
VKDLIKKLLVVDRTRRLGNMKNGA [PRKX] showed a protein stability index [1] of 2.62 ± 0.57 and a protein stability index [2] of 2.33 ± 0.56.
Sequence VKEDDKLIFHRHPVAQSTDAIRGK [SPSB1] has a protein stability index [1] of 4.56 ± 0.25 and a protein stability index [2] of 4.69 ± 0.25.
Work on VKLGPALTPHIVQYQANKVTHTLT [PPEF2] yielded a protein stability index [1] of 2.35 ± 0.34 and a protein stability index [2] of 2.2 ± 0.42.
For VKQEEDIKPPPPLVLNSQQSDTLE [RAD54B], the protein stability index [1] was 5.42 ± 0.22 and the protein stability index [2] was 5.39 ± 0.33.
Work on VLEAKMTMLTVIEQPVPPTPATPE [EMID1] yielded a protein stability index [1] of 3.72 ± 0.38 and a protein stability index [2] of 3.89 ± 0.24.
For VLGGRRLRRAWFSWPRASPASGAS [SCNN1D], the protein stability index [1] was 2.89 ± 0.35 and the protein stability index [2] was 2.86 ± 0.39.
In the case of VLSESSGPSNTSHSSSRDSHLSNG [C2CD2L], the protein stability index [1] is reported as 4.96 ± 0.28 and the protein stability index [2] is reported as 5 ± 0.13.
For VLSILHATLPGIFMLLLIFFAFLH [SOAT2], the protein stability index [1] was 2.87 ± 0.32 and the protein stability index [2] was 3.17 ± 0.41.
For VPDGLGLDEAREEEGDREVVLYG [TRIB3], the protein stability index (treatment: DMSO, c terminus: native) was 4.96 ± 0.33 and the protein stability index (treatment: MLN4924 1 uM, 8 h, c terminus: native) was 5.26 ± 0.28.
Work on VPEEPPVKKLMRTSTPPPASVINN [ZBED1] yielded a protein stability index [1] of 4.89 ± 0.29 and a protein stability index [2] of 4.94 ± 0.19.
VPVKKQKTRTVFSSTQLCVLNDRF [NANOGP8] showed a protein stability index [1] of 2.57 ± 0.23 and a protein stability index [2] of 2.77 ± 0.32.
Sequence VQKSIYSEFLKRFVEATRKWKVGI [ALDH8A1] has a protein stability index [1] of 2.75 ± 0.91 and a protein stability index [2] of 2.83 ± 0.54.
With VRLDRVRGGRQKYKRRIDAENSPY [ESRRG] the protein stability index [1] was 3.81 ± 0.25 and the protein stability index [2] was 3.75 ± 0.052.
In the case of VSTKEQILDLLVLEQFLSILPKEL [ZSCAN9], the protein stability index [1] is reported as 3.21 ± 0.93 and the protein stability index [2] is reported as 3.02 ± 0.65.
With VSVPENLPVGTQLLTVTATDRDEG [PCDHGA10] the protein stability index [1] was 5.42 ± 0.38 and the protein stability index [2] was 5.27 ± 0.12.
Work on VTHTEISPEQQFDRSVQRLLATRI [TMEM175] yielded a protein stability index [1] of 3.2 ± 0.28 and a protein stability index [2] of 3.34 ± 0.25.
In the case of VTMSSLFKHILRTEGAFGLYRGLA [SLC25A25], the protein stability index [1] is reported as 2.5 ± 0.69 and the protein stability index [2] is reported as 2.65 ± 0.51.
Sequence VVCRQLGLGFASNAFQETWYWHGD [LOXL2] has a protein stability index [1] of 2.55 ± 0.55 and a protein stability index [2] of 2.42 ± 0.31.
In the case of VVKQFVTGIIDSLTISPKAARVGL [MATN2], the protein stability index [1] is reported as 2.15 ± 0.34 and the protein stability index [2] is reported as 3.15 ± 1.4.
VVPEKLDDLVPKGKKFLLLSINRY [ALG2] gave a protein stability index [1] of 2.07 ± 0.36 and a protein stability index [2] of 2.08 ± 0.42.
Sequence VVRLLLEHYRVQTQQTGTVRFDGY [FEM1B] has a protein stability index [1] of 2.62 ± 0.57 and a protein stability index [2] of 2.63 ± 0.58.
VWNMTATRPKKMGSQLPKPRMLRE [FATE1] gave a protein stability index [1] of 2.94 ± 0.24 and a protein stability index [2] of 3 ± 0.12.
Work on VYAGRPLSVIQMVAFLEQRASALL [FBXO34] yielded a protein stability index [1] of 1.98 ± 0.39 and a protein stability index [2] of 2.29 ± 0.35.
Work on VYSWPKNKKNILLRLLREEEYVAP [TRAF3IP2] yielded a protein stability index [1] of 2.11 ± 0.68 and a protein stability index [2] of 2.5 ± 0.59.
With WATRKPPAPKSTYECRCIGEEKEM [TIA1] the protein stability index [1] was 2.98 ± 0.44 and the protein stability index [2] was 3.4 ± 0.58.
WDIGRGKLYHQSKGPGAPQYPAGT [SPSB2] gave a protein stability index [1] of 3.72 ± 0.095 and a protein stability index [2] of 3.53 ± 0.07.
With WDPSVQSCKEGLSPRGPAPGEEKF [ZNF263] the protein stability index [1] was 5.43 ± 0.1 and the protein stability index [2] was 5.46 ± 0.092.
Sequence WDSGCLAPPSTRTSHSLPESSVPS [PLEKHN1] has a protein stability index [1] of 4.4 ± 0.59 and a protein stability index [2] of 4.64 ± 0.23.
In the case of WEFKLSDPDEVARRWGKRKNKPKM [ETS1], the protein stability index [1] is reported as 3.65 ± 0.27 and the protein stability index [2] is reported as 3.67 ± 0.067.
For WGVCEPQREEVEERMWAAIQSWDI [ZER1], the protein stability index [1] was 3.35 ± 0.22 and the protein stability index [2] was 3.56 ± 0.3.
WICQRSTVASMMHRQETVDCLKKF [CAMK2D] gave a protein stability index [1] of 2.67 ± 0.15 and a protein stability index [2] of 2.43 ± 0.64.
Sequence WMQVASLNEKRTFFHLSALKGYLY [KLHL13] has a protein stability index [1] of 2.76 ± 0.57 and a protein stability index [2] of 2.58 ± 0.36.
WQLFGPFGAVTNVKVIRDFTTNKC [ELAVL3] gave a protein stability index [1] of 2.36 ± 0.37 and a protein stability index [2] of 2.2 ± 0.26.
